How the values were obtained:
Conditions in all cases: both partners purified
human FGF1 = target: T1, human FGF1 (human, UniProt P05230 16-155); experiment: SPR; Biacore T200; Recifercept amine-coupled on a CM5 chip (about 400 RU); hFGF injected in HBS-EP (0.01 M HEPES, 0.15 M NaCl, 3 mM EDTA, 0.05% polysorbate 20, pH 7.4) at 50 ul/min; single cycle kinetics, 5 concentrations from 0 to 16 nM; global 1:1 fit; triplicate
T1 construct: fibroblast growth factor 1, human, recombinant; also called hFGF1; source: recombinant; bought: Peprotech for the cell assays
T1 sequence (P05230 16-155): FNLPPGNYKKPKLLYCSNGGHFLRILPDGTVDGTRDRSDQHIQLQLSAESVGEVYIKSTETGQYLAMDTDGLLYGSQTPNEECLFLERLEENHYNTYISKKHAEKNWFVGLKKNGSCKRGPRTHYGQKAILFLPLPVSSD

human FGF20 = target: T2, human FGF20 (human, UniProt Q9NP95 1-211); experiment: as above
T2 construct: fibroblast growth factor 20, human, recombinant; also called hFGF20; source: recombinant
T2 sequence (Q9NP95 whole entry): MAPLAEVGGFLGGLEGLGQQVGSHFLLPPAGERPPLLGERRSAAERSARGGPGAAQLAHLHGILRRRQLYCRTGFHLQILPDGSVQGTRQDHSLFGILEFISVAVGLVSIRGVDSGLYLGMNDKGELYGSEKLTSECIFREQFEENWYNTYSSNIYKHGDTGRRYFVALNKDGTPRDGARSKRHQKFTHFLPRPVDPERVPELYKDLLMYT

human FGF16 = target: T3, human FGF16 (human, UniProt O43320 1-207); experiment: as above
T3 construct: fibroblast growth factor 16, human, recombinant; also called hFGF16; source: recombinant

human FGF9 = human FGF9 (human, UniProt P31371 4-208); experiment: as above
human FGF2 = target: T4, human FGF2 (human, UniProt P09038 143-288); experiment: as above
T4 construct: fibroblast growth factor 2, human, recombinant; also called hFGF2; source: recombinant; bought: Peprotech for the cell assays
T4 sequence (P09038 143-288): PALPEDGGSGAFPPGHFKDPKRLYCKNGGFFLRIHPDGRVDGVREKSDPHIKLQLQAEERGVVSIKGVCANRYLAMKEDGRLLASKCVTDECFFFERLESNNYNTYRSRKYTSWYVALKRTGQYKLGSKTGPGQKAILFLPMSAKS

human FGF17 = target: T5, human FGF17 (human, UniProt O60258 23-216); experiment: SPR; as a1 (Recifercept amine-coupled on a CM5 chip, hFGF in HBS-EP, single cycle kinetics, 0 to 16 nM, 1:1 fit, triplicate) but with 16 nM heparin in each tested concentration (FGF8 subfamily)
T5 construct: fibroblast growth factor 17, human, recombinant; also called hFGF17; source: recombinant
T5 sequence (looked up): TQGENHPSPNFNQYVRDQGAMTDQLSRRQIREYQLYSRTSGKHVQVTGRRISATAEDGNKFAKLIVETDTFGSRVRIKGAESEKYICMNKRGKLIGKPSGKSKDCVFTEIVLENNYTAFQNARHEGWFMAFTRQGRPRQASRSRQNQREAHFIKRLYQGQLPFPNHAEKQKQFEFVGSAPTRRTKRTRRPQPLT

human FGF8 = human FGF8 (human, UniProt P55075 23-233, Isoform, supplier and limits are not printed. Assumed the FGF8b isoform (mature 23-215), the usual commercial recombinant form and the one that binds FGFR3c; the P55075 canonical sequence is FGF8e. Th); experiment: as above
human FGF18 = target: T6, human FGF18 (human, UniProt O76093 28-207); experiment: as above
T6 construct: fibroblast growth factor 18, human, recombinant; also called hFGF18; source: recombinant
T6 sequence (looked up): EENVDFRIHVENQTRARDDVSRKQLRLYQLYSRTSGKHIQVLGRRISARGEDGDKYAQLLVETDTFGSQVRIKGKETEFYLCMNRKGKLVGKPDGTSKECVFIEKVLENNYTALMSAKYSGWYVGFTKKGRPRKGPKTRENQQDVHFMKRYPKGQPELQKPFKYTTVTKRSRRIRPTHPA

B1: Recifercept (receptor)
chain: ESLGTEQRVVGRAAEVPGPEPGQQEQLVFGSGDAVELSCPPPGGGPMGPTVWVKDGTGLVPSERVLVGPQRLQVLNASHEDSGAYSCRQRLTQRVLCHFSVRVTDAPSSGDDEDGEDEAEDTGVDTGAPYWTRPERMDKKLLAVPAANTVRFRCPAAGNPTPSISWLKNGREFRGEHRIGGIKLRHQQWSLVMESVVPSDRGNYTCVVENKFGSIRQTYTLDVLERSPHRPILQAGLPANQTAVLGSDVEFHCKVYSDAQPHIQWLKHVEVNGSKVGPDGTPYVTVLKTAGANTTDKELEVLSLHNVTFEDAGEYTCLAGNSIGFSHHSAWLVVLPVSLESNASMSSNT
notes: extracellular domain of human FGFR3 (P22607); also called soluble fibroblast growth factor receptor 3; modified soluble recombinant human FGFR3; source: GPEX CHO cell line, 50L single use bioreactor, media filtered, purified using chromatography
Kd (human FGF1): 0.74 nM
koff (human FGF1): 0.000904 s⁻¹
kon (human FGF1): 1.33e+06 M⁻¹ s⁻¹
Kd (human FGF20): 7.1 nM
koff (human FGF20): 0.000548 s⁻¹
kon (human FGF20): 123000 M⁻¹ s⁻¹
Kd (human FGF16): 0.94 nM
koff (human FGF16): 0.00253 s⁻¹
kon (human FGF16): 2.8e+06 M⁻¹ s⁻¹
Kd (human FGF9): 0.75 nM
koff (human FGF9): 0.00133 s⁻¹
kon (human FGF9): 1.83e+06 M⁻¹ s⁻¹
Kd (human FGF2): 3.4 nM
koff (human FGF2): 0.000898 s⁻¹
kon (human FGF2): 279000 M⁻¹ s⁻¹
Kd (human FGF17): 2.73 nM
koff (human FGF17): 0.000964 s⁻¹
kon (human FGF17): 390000 M⁻¹ s⁻¹
Kd (human FGF8): 4.28 nM
koff (human FGF8): 0.000705 s⁻¹
kon (human FGF8): 171000 M⁻¹ s⁻¹
Kd (human FGF18): 4.17 nM
koff (human FGF18): 0.00105 s⁻¹
kon (human FGF18): 270000 M⁻¹ s⁻¹

Reference: paper PMC7769458, “In vitro and in vivo characterization of Recifercept, a soluble fibroblast growth factor receptor 3, as treatment for achondroplasia” (PLoS ONE, 2020)
